Residue numbers refer to the chain shown, from its start.
B1: EO_Q01 (scFv, V domains shown)
VH: EVQLVESGGGLVQPGGSLRLSCAASGFTISSSYIHWVRQAPGKGLEWVAYISPSYGSTSYADSVKGRFTISADTSKNTAYLQMNSLRAEDTAVYYCARELVTMTADYWGQGTLVTVSS
VL: DIQMTQSPSSLSASVGDRVTITCRASQSVSSAVAWYQQKPGKAPKLLIYSASSLYSGVPSRFSGSRSGTDFTLTISSLQPEDFATYYCQQYSHWPITFGQGTKVEIKR
notes: yeast-display scFv
B2: EO_Q13 (scFv, V domains shown)
VH: B1 VH with V101T
VL: B1 VL
notes: yeast-display scFv
B3: EO_Q03 (scFv, V domains shown)
VH: B1 VH with L100S, T104S
VL: B1 VL with H93A
notes: yeast-display scFv
B4: EO_Q05 (scFv, V domains shown)
VH: B1 VH with L100E, T104S, A105I
VL: B1 VL with S92A, H93E
notes: yeast-display scFv
B5: EO_Q07 (scFv, V domains shown)
VH: B1 VH with V101T, T104S, A105I
VL: B1 VL with S92A, H93K
notes: yeast-display scFv
B6: EO_Q09 (scFv, V domains shown)
VH: B1 VH with L100E
VL: B1 VL
notes: yeast-display scFv
B7: EO_Q24 (scFv, V domains shown)
VH: B1 VH with L100Y, T104A, A105L
VL: B1 VL with H93E, I96E
notes: yeast-display scFv
B8: EO_Q22 (scFv, V domains shown)
VH: B1 VH with L100Y, T104A, A105L
VL: B1 VL
notes: yeast-display scFv
B9: EO_Q14 (scFv, V domains shown)
VH: B1 VH with L100S, V101I, T104S, A105P
VL: B1 VL with H93S
notes: yeast-display scFv
B10: EO_Q04 (scFv, V domains shown)
VH: B1 VH with L100S, A105K
VL: B1 VL with H93D
notes: yeast-display scFv
B11: EO_Q23 (scFv, V domains shown)
VH: B1 VH with L100Y, T104A, A105L
VL: B1 VL with I96E
notes: yeast-display scFv
B12: EO_Q12 (scFv, V domains shown)
VH: B1 VH with V101T, T104S, A105I
VL: B1 VL with S92A, H93S
notes: yeast-display scFv
B13: EO_Q06 (scFv, V domains shown)
VH: B1 VH with L100S, V101I, A105K
VL: B1 VL
notes: yeast-display scFv
B14: EO_Q11 (scFv, V domains shown)
VH: B1 VH with A105I
VL: B1 VL with H93G
notes: yeast-display scFv
B15: EO_Q02 (scFv, V domains shown)
VH: B1 VH with L100Y, V101T, T104S, A105I
VL: B1 VL with H93A, I96E
notes: yeast-display scFv
B16: EO_Q18 (scFv, V domains shown)
VH: B1 VH with L100Y, T104A, A105L
VL: B1 VL with H93A, I96E
notes: yeast-display scFv
B17: EO_Q10 (scFv, V domains shown)
VH: B1 VH with V101I, T102E, A105P
VL: B1 VL with H93G
notes: yeast-display scFv
B18: EO_Q15 (scFv, V domains shown)
VH: B1 VH with V101I, T102E, A105T
VL: B1 VL
notes: yeast-display scFv
B19: EO_Q08 (scFv, V domains shown)
VH: B1 VH with V101T, T102E, A105T
VL: B1 VL with H93S
notes: yeast-display scFv
B20: EO_Q20 (scFv, V domains shown)
VH: B1 VH with L100E, A105P
VL: B1 VL with H93D
notes: yeast-display scFv
B21: IBA1-13 (antibody, V domains shown)
VH: EVQLVESGGGLVQPGGSLRLSCAASGFTLSSSSIHWVRQAPGKGLEWVASIYSSYGYTYYADSVKGRFTISADTSKNTAYLQMNSLRAEDTAVYYCARYYYYWYGGMDYWGQGTLVTVSS
VL: DIQMTQSPSSLSASVGDRVTITCRASQSVSSAVAWYQQKPGKAPKLLIYSASSLYSGVPSRFSGSRSGTDFTLTISSLQPEDFATYYCQQGHDMNPVTFGQGTKVEIKR
notes: phage-display clone
B22: IBA1-4 (antibody, V domains shown)
VH: EVQLVESGGGLVQPGGSLRLSCAASGFTVSSSSIHWVRQAPGKGLEWVASIYSYSGSTYYADSVKGRFTISADTSKNTAYLQMNSLRAEDTAVYYCARQYSSSYYVWPGMDYWGQGTLVTVSS
VL: DIQMTQSPSSLSASVGDRVTITCRASQSVSSAVAWYQQKPGKAPKLLIYSASSLYSGVPSRFSGSRSGTDFTLTISSLQPEDFATYYCQQYHYWASLITFGQGTKVEIKR
notes: phage-display clone
B23: IBA1-7 (antibody, V domains shown)
VH: EVQLVESGGGLVQPGGSLRLSCAASGFTLSSSSIHWVRQAPGKGLEWVASISSYYGSTSYADSVKGRFTISADTSKNTAYLQMNSLRAEDTAVYYCARMHYSWQEYYSYDWGMDYWGQGTLVTVSS
VL: B22 VL with Y91S, H92Y, Y93W, A95K, I98V
notes: phage-display clone
B24: IBA1-21 (antibody, V domains shown)
VH: EVQLVESGGGLVQPGGSLRLSCAASGFTISSSSIHWVRQAPGKGLEWVASISSYYGYTSYADSVKGRFTISADTSKNTAYLQMNSLRAEDTAVYYCARYYSYSSGYGYYDYFDWGAMDYWGQGTLVTVSS
VL: B22 VL with Y91M, H92Q, W94S, A95G, S96W
notes: phage-display clone
B25: IBA1-19 (antibody, V domains shown)
VH: EVQLVESGGGLVQPGGSLRLSCAASGFTFSYSSIHWVRQAPGKGLEWVASIYPSSGYTSYADSVKGRFTISADTSKNTAYLQMNSLRAEDTAVYYCARGWWYWMAWDYAMDYWGQGTLVTVSS
VL: B22 VL with Y91S, H92W, Y93M, W94S, A95D
notes: phage-display clone
B26: IBA1-8 (antibody, V domains shown)
VH: EVQLVESGGGLVQPGGSLRLSCAASGFTISYSSIHWVRQAPGKGLEWVASIYPSYGSTSYADSVKGRFTISADTSKNTAYLQMNSLRAEDTAVYYCARWQGYYQPALDYWGQGTLVTVSS
VL: B1 VL with Y91P, S92Y, H93Y, W94P, P95L
notes: phage-display clone

molecular target: T1, HLA-A*02:01 in complex with the EGFR peptide … conjugated with osimertinib (human, osimertinib covalently bound to Cys); experiment: yeast display
T1 construct: also called HLA-A*02:01_EGFR-osimertinib; osimertinib-EGFR/HLA-A*02

| Binder | binding result |
| --- | --- |
| B1 | binds |
| B2 | binds |
| B3 | binds |
| B4 | binds |
| B5 | binds |
| B6 | binds |
| B7 | binds |
| B8 | binds |
| B9 | binds |
| B10 | binds |
| B11 | binds |
| B12 | binds |
| B13 | binds |
| B14 | binds |
| B15 | binds |
| B16 | binds |
| B17 | binds |
| B18 | binds |
| B19 | binds |
| B20 | binds |

molecular target: T2, HLA-A*01:01 in complex with the BTK peptide … conjugated with Ibrutinib (human, ibrutinib covalently bound to Cys); experiment: phage display selection; MBBA
T2 construct: also called HLA-A*01:01_BTK-Ibrutinib

| Binder | binding result |
| --- | --- |
| B21 | binds |
| B22 | binds |
| B23 | binds |
| B24 | binds |
| B25 | binds |
| B26 | binds |

From US20250353912A1 (NEW YORK UNIVERSITY, published 2025)
